Assays:
[1] = target: T1, OXA-405 β-lactamase (Serratia marcescens, UniProt A0A0F6P2I5); assay: IC50 with purified enzyme, […] benzylpenicillin as reporter substrate, […] min preincubation; type: biochemical
T1 construct: gene blaOXA-405

[2] = target: T1, OXA-405 β-lactamase; assay: steady-state hydrolysis kinetics (Km) with purified enzyme; type: biochemical
[3] = system: C[C@@H](O)[C@H]1C(=O)N2C(C(=O)O)=C(S[C@@H]3CN[C@H](C(=O)Nc4cccc(C(=O)O)c4)C3)[C@H](C)[C@H]12; assay: as above; type: biochemical, Serratia marcescens
[4] = system: C[C@@H](O)[C@H]1C(=O)N2C(C(=O)O)=C(SCCN=CN)C[C@H]12; assay: as above; type: biochemical, Serratia marcescens
[5] = system: Cc1onc(-c2ccccc2)c1C(=O)N[C@@H]1C(=O)N2[C@@H]1SC(C)(C)[C@@H]2C(=O)O; assay: as above; type: biochemical, Serratia marcescens
[6] = system: CC1(C)S[C@@H]2[C@H](NC(=O)[C@H](N)c3ccccc3)C(=O)N2[C@H]1C(=O)O; assay: as above; type: biochemical, Serratia marcescens
[7] = system: CO/N=C(\C(=O)N[C@@H]1C(=O)N2C(C(=O)O)=C(COC(C)=O)CS[C@H]12)c1csc(N)n1; assay: as above; type: biochemical, Serratia marcescens
[8] = system: CC1(C)S[C@@H]2[C@H](NC(=O)Cc3ccccc3)C(=O)N2[C@H]1C(=O)O; assay: as above; type: biochemical, Serratia marcescens
[9] = system: CC(=O)OCC1=C(C(=O)O)N2C(=O)[C@@H](NC(=O)Cc3cccs3)[C@H]2SC1; assay: as above; type: biochemical, Serratia marcescens

T1 sequence (A0A0F6P2I5 23-261 limits assumed): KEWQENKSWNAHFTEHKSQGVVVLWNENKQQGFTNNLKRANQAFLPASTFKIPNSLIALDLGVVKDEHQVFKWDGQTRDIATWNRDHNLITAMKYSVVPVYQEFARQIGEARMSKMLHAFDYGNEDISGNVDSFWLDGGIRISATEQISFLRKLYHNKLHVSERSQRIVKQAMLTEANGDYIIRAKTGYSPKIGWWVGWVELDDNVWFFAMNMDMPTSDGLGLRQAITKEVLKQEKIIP

## O=C(O)[C@H]1/C(=C/CO)O[C@@H]2CC(=O)N21 [Clavulanic acid]
[1]
  IC50: 6 µM

## CC(C)(O/N=C(\C(=O)N[C@@H]1C(=O)N2C(C(=O)[O-])=C(C[n+]3ccccc3)CS[C@H]12)c1csc(N)n1)C(=O)O [Ceftazidime]
[2]
  Km: > 1000 µM

## C[C@]1(Cn2ccnn2)[C@H](C(=O)O)N2C(=O)C[C@H]2S1(=O)=O [Tazobactam]
[1]
  IC50: 1.8 µM

## OXA-405 β-lactamase (Serratia marcescens)
[3]
  Km: 88 µM
  kcat: 0.04 s⁻¹
  kcat/Km: 400 M⁻¹ s⁻¹
[4]
  Km: 532 µM
  kcat: 0.1 s⁻¹
  kcat/Km: 200 M⁻¹ s⁻¹
[5]
  Km: 69 µM
  kcat: 19 s⁻¹
  kcat/Km: 275000 M⁻¹ s⁻¹
[6]
  Km: 212 µM
  kcat: 29 s⁻¹
  kcat/Km: 137000 M⁻¹ s⁻¹
[7]
  Km: 369 µM
  kcat: 9.7 s⁻¹
  kcat/Km: 26000 M⁻¹ s⁻¹
[8]
  Km: 18 µM
  kcat: 12 s⁻¹
  kcat/Km: 667000 M⁻¹ s⁻¹
[9]
  Km: 18 µM
  kcat: 8 s⁻¹
  kcat/Km: 444000 M⁻¹ s⁻¹

From PMC7022249, “Biochemical and Structural Characterization of OXA-405, an OXA-48 Variant with Extended-Spectrum β-Lactamase Activity” (Microorganisms, 2019)
